# Earlier results, collected in PMC12442452.
# Where two headings read alike, the source gives them in different places.
# Experiments:
# Cys25 [1] = biological target: Cys25 (UniProt position 158, GSCGSCWAFSA); details: not stated (apo enzyme implied)
# Cys25 [2] = biological target: T1, Cys25 (UniProt position 147, GQCGSCWAFSA); details: ligand-free cruzain
# Cys25 [3] = biological target: T1, Cys25; test: kinetics; details: apo (free) enzyme
# His162 = His162 (UniProt position 284, SEQLDHGVLLV); test: kinetics; details: apo (free) enzyme
Substance,pKa (Cys25 [1]),pKa (Cys25 [2]),pKa (Cys25 [3]),pKa (His162)
Papain (Carica papaya (inferred; not stated in the article)),3.3,–,–,–
"Cruzain (cruzipain, major cysteine protease) (Trypanosoma cruzi)",–,9.8,9.7,6.6
